This is an account of results in patent US20250353884A1.

The target in this assay is T1, Chim^C::mCH.
T1 sequence: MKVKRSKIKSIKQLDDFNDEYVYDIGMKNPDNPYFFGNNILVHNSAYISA
The assay can be described thus: cell-based or functional assay.

B1: mTQ::Chim^N (protein, not shown: large carriers)
chain: SETGDTIHKTNWGELTVEELFNRGTRYWSEDNSKEYSANDELKVLTFDPVKDEAYYGNINYIYRHKVSKEQWEIEDEAGNTIRVTGDHSIMIERDGQLMDVKPRDMLDTDVLIVVDHN
As for B1, the Kapp of the PTS reaction, pH 6.0 came out at 0.0107 s⁻¹; the Kapp of the PTS reaction, pH 6.5 came to 0.00807 s⁻¹; the Kapp of the PTS reaction, pH 7.0 turned out to be 0.00724 s⁻¹.
